Data: US20040110252A1, “Yeast-based assay” (priority 2000, published 2004)
Where two headings read alike, the source gives them in different places.

How the values were obtained:
S. cerevisiae cells = details: cited from earlier work
Sz. pombe cells = details: cited from earlier work
[1] = target: P-factor receptor (encoded by the mam2 gene) (Schizosaccharomyces pombe) (UniProt Q00619)

Row | colony formation of sxa2>ura4 reporter cells on plates lacking uracil with different concentrations of P-factor [1] [units/ml] | Substance | Sensitivity of cells to the toxin (S. cerevisiae cells; S. cerevisiae spheroplasts (cell wall enzymatically removed)) | Sensitivity of cells to the toxin (S. cerevisiae cells; intact S. cerevisiae cells) | Sensitivity of cells to the toxin (Sz. pombe cells)
1 | – | Diphtheria toxin | sensitive | resistant | sensitive
2 | > 10 | P-factor mating pheromone (peptide) | – | – | –
